Bridges are numbered along the chain shown (N, C = ends). [ ]: non-standard residue; d: D form.
Experiments:
Test in all cases: cell-based or functional assay
[1] = target: HIV-1 JRFL envelope glycoprotein gp41 (N-trimer of the prehairpin intermediate) (HIV-1 strain JRFL)
[2] = target: HIV-1 isolate IIIB gp41 (envelope subtype B) (HIV-1 isolate IIIB)
[3] = target: HIV-1 isolate Ba-L gp41 (envelope subtype B) (HIV-1 isolate Ba-L)
[4] = target: HIV-1 isolate JR-CSF gp41 (envelope subtype B) (HIV-1 isolate JR-CSF)
[5] = target: HIV-1 isolate 92UG029 gp41 (envelope subtype A) (HIV-1 isolate 92UG029)
[6] = target: HIV-1 isolate 92UG037 gp41 (envelope subtype A) (HIV-1 isolate 92UG037)
[7] = target: HIV-1 isolate 93IN101 gp41 (envelope subtype C) (HIV-1 isolate 93IN101)
[8] = target: HIV-1 isolate 92BR025 gp41 (envelope subtype C) (HIV-1 isolate 92BR025)
[9] = target: HIV-1 isolate 92UG001 gp41 (envelope subtype D) (HIV-1 isolate 92UG001)
[10] = target: HIV-1 isolate 92UG046 gp41 (envelope subtype D) (HIV-1 isolate 92UG046)
[11] = target: HIV-1 isolate CMU02 gp41 (envelope subtype AE) (HIV-1 isolate CMU02)
[12] = target: HIV-1 isolate 93TH073 gp41 (envelope subtype E) (HIV-1 isolate 93TH073)
[13] = target: HIV-1 isolate CMU06 gp41 (envelope subtype E) (HIV-1 isolate CMU06)
[14] = target: HIV-1 isolate 93BR019 gp41 (envelope subtype BF) (HIV-1 isolate 93BR019)
[15] = target: HIV-1 isolate 93BR020 gp41 (envelope subtype F) (HIV-1 isolate 93BR020)
[16] = target: HIV-1 isolate 93BR029 gp41 (envelope subtype F) (HIV-1 isolate 93BR029)
[17] = target: HIV-1 isolate G3 gp41 (envelope subtype G) (HIV-1 isolate G3)
[18] = target: HIV-1 isolate RU570 gp41 (envelope subtype G) (HIV-1 isolate RU570)

With Ac-[dH][dP][dC][dD][dY][dP][dE][dW][dQ][dW][dL][dC][dE][dL]G[dK]-NH2 (disulfide 3-12 (inferred); also: trimer, crosslinking not given here) [PIE12 trimer (Table 3)] the “IC50, replication competent virus on PBMC target cells” value (“IC50, replication competent virus” for short) [1] was 0.26 nM, the “IC50, replication competent virus” value [2] was 0.78 nM and the “IC50, replication competent virus” value [3] was 0.27 nM. For the same binder, the “IC50, replication competent virus” value [4] was 0.08 nM, the “IC50, replication competent virus” value [5] was 0.69 nM and the “IC50, replication competent virus” value [6] was 0.21 nM. The “IC50, replication competent virus” value [7] was 0.38 nM, the “IC50, replication competent virus” value [8] was 5.19 nM and the “IC50, replication competent virus” value [9] was 4.45 nM. For the same binder, the “IC50, replication competent virus” value [10] was 1.2 nM, the “IC50, replication competent virus” value [11] was 0.35 nM and the “IC50, replication competent virus” value [12] was 0.84 nM. For the same binder, the “IC50, replication competent virus” value [13] was 0.38 nM, the “IC50, replication competent virus” value [14] was 4.72 nM and the “IC50, replication competent virus” value [15] was 0.37 nM. For the same binder, the “IC50, replication competent virus” value [16] was 0.79 nM, the “IC50, replication competent virus” value [17] was 1.21 nM and the “IC50, replication competent virus” value [18] was 0.36 nM.
